The assay has as its target T1, CADM1FcΔ10 (Δ10 Fc variant formed by fusing human Fc with a CADM1 extracellular domain) (human).
T1 construct: The whole entry is the fusion (CADM1 extracellular domain, AAA linker, human IgG1 hinge-Fc); Dimerized via Fc; also called Fc10; dimerized FcΔ10
Nature of the assay: SPR (Biacore 8K), antibody amine-coupled on CM5, CADM1 as analyte, multi-cycle kinetics. Here is the method:
The antibody was diluted with a phosphate buffered saline (PBS) at a concentration of 1 mg/ml, and was then immobilized as a ligand on a sensor chip CM5 by an amine coupling method.

T1 sequence (chain, as listed by the source mutant limits assumed): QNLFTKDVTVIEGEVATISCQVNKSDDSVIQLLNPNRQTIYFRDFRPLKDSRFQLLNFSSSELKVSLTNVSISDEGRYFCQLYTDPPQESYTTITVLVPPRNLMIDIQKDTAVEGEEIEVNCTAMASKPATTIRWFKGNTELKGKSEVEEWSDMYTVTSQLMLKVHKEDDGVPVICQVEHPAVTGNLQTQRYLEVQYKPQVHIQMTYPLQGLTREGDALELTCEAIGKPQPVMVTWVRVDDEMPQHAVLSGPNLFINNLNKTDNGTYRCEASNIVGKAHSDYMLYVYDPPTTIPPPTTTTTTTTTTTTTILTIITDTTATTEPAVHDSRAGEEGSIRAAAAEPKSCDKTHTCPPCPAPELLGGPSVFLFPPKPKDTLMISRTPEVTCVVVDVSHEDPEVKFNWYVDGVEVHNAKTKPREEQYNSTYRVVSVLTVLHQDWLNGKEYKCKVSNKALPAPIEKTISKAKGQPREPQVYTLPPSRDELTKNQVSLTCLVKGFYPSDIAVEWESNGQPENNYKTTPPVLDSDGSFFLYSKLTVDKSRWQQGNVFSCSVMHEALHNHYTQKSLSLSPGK

B1: YTH-W-2C2 chimeric antibody (antibody, V domains shown)
VH: QVQLQQSGAELAKPGSSVKISCKASGYTFSNYDISWIKQTTGQGLDYIGYIHTGSGGTYYNEKFKGKATLTVDKSSSTAFMQLSSLTPEDTAVYYCARTPYVYYGSGYFDFWGPGTMVTVSS
VL: DIVMTQSPSSLAVSAGETVTINCKSSQSLLYSGNQKNYLAWYQQKPGQSPKLLIYWASTRQSGVPDRFIGSGSGTDFTLTISSVQAEDLAIYYCQQYYDTPDTFGAGTKLELKR
For B1, the Kd (usually the constant that tells how readily two partners part at equilibrium) is 640 pM.

These data come from patent US20240317853A1 (UNIVERSITY OF TOKYO, published 2024).
